Results from the supplement of paper PMC10065799, “High-throughput profiling of sequence recognition by tyrosine kinases and SH2 domains using bacterial peptide display” (eLife, 2023).

Assays:
c-Src SH2 = experiment: SH2 binding enrichment of the phosphorylated peptide, bacterial display (enrichment ratio); higher = better substrate or ligand; peptides without Tyr show the background
Grb2 SH2 = Grb2 SH2 (UniProt P62993); experiment: as above
SHP2-C SH2 = experiment: as above
c-Src = experiment: phosphorylation enrichment, bacterial display (enrichment ratio); higher = better substrate or ligand; peptides without Tyr show the background
FGFR1 = FGFR1 (UniProt P11362); experiment: as above
Hck = Hck (UniProt P08631); experiment: as above
Fes = Fes (UniProt P07332); experiment: as above
EPHB2 = EPHB2 (UniProt P29323); experiment: as above
Jak2 = Jak2 (UniProt O60674); experiment: as above
FGFR3 = FGFR3 (UniProt P22607); experiment: as above
AncSZ = experiment: as above
MERTK = MERTK (UniProt Q12866); experiment: as above
Fyn = Fyn (UniProt P06241); experiment: as above
Fer (mouse) = experiment: as above
EPHB1 = EPHB1 (UniProt P54762); experiment: as above
c-Abl (mouse) = experiment: as above
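Wherever SH2 binding enrichment of the phosphorylated peptide, bacterial display is given: peptide library displayed on the E. coli surface as eCPX fusions, selected cells deep-sequenced, score is each peptide's frequency after selection divided by its frequency in the input.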
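Wherever phosphorylation enrichment, bacterial display is given: 11-residue human phosphosite peptides and single-mutation variants displayed on the E. coli surface, counted by deep sequencing, each peptide's frequency after selection divided by its frequency in the unselected input library; frequency after pTyr selection over input frequency; kinase dosed for 20-30% of maximal phosphorylation in three min.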

EPHB1, sequence (P54762 whole entry, looked up): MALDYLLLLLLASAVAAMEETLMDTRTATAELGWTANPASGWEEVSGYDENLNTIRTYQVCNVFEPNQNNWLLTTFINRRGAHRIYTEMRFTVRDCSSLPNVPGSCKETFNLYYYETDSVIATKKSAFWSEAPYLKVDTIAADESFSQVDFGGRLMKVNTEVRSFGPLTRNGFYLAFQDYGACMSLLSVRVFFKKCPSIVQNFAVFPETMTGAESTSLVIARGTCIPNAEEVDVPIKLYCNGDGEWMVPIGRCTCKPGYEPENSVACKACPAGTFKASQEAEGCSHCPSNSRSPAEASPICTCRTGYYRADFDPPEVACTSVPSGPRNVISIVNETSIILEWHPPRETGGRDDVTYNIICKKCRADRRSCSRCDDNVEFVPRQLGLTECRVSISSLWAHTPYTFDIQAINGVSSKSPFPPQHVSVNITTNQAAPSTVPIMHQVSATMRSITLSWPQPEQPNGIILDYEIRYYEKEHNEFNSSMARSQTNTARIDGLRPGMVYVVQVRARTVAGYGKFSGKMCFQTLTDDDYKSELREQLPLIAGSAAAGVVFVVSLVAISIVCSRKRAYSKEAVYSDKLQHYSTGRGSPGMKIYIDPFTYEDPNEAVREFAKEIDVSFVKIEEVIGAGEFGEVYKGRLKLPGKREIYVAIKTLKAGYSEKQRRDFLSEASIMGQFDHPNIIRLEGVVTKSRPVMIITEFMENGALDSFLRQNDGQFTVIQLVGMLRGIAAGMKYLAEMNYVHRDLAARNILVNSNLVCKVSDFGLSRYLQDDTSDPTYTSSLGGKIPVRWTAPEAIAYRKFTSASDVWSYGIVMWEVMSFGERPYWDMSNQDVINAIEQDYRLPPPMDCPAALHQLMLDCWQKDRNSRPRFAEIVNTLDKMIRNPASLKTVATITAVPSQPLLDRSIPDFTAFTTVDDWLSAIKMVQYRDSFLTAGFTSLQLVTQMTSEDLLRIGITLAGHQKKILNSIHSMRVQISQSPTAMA
Grb2 SH2, sequence (P62993 whole entry, looked up): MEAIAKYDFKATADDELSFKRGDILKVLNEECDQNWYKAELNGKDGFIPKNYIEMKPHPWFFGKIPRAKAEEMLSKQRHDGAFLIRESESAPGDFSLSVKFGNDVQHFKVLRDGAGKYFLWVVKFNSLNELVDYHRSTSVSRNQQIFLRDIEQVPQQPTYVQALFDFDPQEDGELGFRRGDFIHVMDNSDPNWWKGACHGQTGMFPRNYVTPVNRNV
Fyn, sequence (P06241 whole entry, looked up): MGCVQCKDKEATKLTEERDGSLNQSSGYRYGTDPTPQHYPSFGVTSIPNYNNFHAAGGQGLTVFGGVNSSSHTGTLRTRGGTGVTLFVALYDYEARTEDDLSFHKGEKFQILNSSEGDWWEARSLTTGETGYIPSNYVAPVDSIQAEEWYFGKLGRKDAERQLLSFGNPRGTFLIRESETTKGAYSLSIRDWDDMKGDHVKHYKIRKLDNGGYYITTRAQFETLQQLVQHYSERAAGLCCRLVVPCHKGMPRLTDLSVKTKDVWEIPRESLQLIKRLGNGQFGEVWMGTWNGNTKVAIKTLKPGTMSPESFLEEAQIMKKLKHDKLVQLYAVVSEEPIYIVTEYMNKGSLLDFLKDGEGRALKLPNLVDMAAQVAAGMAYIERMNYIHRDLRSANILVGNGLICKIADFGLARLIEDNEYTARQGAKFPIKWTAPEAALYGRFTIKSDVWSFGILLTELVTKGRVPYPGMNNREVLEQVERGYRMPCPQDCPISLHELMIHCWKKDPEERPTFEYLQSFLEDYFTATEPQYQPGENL
MERTK, sequence (Q12866 whole entry, looked up): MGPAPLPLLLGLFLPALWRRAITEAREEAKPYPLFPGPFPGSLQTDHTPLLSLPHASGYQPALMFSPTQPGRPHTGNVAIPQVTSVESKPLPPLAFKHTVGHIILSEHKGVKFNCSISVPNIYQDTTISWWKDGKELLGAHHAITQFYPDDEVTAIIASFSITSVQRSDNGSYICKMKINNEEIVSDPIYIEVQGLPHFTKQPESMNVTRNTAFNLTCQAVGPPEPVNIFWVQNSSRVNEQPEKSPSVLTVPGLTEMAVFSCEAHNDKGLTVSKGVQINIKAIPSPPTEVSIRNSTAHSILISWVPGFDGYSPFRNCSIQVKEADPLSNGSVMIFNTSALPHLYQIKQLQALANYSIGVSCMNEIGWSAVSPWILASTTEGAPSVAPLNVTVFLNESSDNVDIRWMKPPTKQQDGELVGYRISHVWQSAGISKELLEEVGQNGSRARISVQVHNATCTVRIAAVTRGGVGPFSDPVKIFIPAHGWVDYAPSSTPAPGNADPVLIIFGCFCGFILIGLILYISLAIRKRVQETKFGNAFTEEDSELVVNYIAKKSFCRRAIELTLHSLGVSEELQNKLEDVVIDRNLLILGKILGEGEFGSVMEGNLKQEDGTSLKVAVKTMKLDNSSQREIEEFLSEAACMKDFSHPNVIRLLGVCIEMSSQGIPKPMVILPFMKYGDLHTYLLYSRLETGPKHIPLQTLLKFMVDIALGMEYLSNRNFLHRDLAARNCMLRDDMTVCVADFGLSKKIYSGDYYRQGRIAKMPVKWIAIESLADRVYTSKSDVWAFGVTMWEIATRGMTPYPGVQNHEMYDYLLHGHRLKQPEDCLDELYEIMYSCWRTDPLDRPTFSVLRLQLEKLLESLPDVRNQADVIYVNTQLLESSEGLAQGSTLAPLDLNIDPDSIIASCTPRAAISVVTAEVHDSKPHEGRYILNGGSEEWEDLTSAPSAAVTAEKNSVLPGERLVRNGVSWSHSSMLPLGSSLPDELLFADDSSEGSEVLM
Jak2, sequence (O60674 whole entry, looked up): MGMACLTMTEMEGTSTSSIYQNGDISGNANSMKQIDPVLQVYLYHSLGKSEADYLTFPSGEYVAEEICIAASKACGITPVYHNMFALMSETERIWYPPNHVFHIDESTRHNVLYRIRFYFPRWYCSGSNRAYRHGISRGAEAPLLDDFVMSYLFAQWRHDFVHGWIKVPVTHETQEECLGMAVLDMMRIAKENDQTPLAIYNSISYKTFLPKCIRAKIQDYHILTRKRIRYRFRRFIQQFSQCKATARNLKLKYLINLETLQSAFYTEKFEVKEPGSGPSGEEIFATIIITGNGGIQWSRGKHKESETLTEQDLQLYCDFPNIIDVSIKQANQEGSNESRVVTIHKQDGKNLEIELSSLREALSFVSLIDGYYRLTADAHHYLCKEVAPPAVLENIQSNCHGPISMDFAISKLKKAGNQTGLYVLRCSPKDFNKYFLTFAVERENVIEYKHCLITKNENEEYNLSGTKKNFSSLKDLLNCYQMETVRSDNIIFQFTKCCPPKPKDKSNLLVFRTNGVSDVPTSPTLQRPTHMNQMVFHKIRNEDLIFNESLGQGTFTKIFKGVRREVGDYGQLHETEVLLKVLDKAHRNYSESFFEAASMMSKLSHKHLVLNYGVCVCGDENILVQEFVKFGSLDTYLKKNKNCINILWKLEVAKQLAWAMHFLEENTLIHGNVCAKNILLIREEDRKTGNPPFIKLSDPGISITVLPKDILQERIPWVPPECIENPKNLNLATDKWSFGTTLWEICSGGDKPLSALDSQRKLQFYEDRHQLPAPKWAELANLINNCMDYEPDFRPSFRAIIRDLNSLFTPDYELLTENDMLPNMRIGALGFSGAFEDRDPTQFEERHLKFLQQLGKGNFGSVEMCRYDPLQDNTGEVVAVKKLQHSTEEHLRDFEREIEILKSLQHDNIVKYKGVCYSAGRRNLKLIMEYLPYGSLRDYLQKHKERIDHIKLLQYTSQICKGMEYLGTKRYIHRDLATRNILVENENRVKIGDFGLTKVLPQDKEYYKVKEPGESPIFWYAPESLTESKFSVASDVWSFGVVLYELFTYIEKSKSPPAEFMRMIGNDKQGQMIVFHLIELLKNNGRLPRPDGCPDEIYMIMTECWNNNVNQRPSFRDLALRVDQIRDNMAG
EPHB2, sequence (P29323 whole entry, looked up): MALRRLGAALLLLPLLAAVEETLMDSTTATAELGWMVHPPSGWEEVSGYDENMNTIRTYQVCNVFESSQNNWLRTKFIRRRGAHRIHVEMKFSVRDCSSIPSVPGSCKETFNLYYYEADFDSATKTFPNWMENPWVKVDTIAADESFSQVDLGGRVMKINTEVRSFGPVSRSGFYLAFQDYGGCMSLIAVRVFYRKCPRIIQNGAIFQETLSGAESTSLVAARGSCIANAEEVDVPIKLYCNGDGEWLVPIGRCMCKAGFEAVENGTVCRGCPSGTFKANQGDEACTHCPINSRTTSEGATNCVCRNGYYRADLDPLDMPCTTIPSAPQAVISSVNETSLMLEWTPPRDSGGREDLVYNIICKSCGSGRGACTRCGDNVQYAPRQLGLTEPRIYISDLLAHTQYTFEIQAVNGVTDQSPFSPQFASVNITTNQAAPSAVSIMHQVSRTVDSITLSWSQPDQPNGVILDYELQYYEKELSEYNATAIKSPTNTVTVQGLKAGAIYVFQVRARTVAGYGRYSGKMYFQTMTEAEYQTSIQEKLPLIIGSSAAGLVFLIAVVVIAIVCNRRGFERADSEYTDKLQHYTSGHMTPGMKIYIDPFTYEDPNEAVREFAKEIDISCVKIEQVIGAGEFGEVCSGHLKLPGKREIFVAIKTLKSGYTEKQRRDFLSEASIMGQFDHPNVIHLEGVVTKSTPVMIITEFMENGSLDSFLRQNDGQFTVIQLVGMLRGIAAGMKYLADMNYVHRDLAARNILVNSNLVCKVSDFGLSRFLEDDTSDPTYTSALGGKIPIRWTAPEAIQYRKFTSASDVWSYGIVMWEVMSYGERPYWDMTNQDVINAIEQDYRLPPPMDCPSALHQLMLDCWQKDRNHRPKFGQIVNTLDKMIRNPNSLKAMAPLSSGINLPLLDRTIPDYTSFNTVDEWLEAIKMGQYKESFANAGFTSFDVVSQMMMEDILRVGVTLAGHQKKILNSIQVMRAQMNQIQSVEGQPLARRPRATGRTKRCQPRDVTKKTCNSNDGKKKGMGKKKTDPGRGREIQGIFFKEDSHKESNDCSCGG

Sequence	SH2 binding enrichment (c-Src SH2)	SH2 binding enrichment (Grb2 SH2)	SH2 binding enrichment (SHP2-C SH2)	phosphorylation enrichment (c-Src)	phosphorylation enrichment (FGFR1)	phosphorylation enrichment (Hck)	phosphorylation enrichment (Fes)	phosphorylation enrichment (EPHB2)	phosphorylation enrichment (Jak2)	phosphorylation enrichment (FGFR3)	phosphorylation enrichment (AncSZ)	phosphorylation enrichment (MERTK)	phosphorylation enrichment (Fyn)	phosphorylation enrichment (Fer (mouse))	phosphorylation enrichment (EPHB1)	phosphorylation enrichment (c-Abl (mouse))
SIYKDYYRYNF [PLA2G2D_Y85]	0.908	0.983	1.92	4.42	13.6	3.09	0.918	5.61	8.28	11.1	1.39	5.06	4.34	1.32	5.65	5.64
SLHPGYNFRFA [P2RX7_Y291_Y288H_YF]	0.703	0.89	0.61	0.385	0.364	0.432	0.904	0.417	0.765	0.524	0.852	0.394	0.378	0.434	0.573	0.57
SLIDMYSEVPD [OPA1_Y268_L272P]	0.545	0.675	0.7	0.747	0.892	0.594	1.03	0.679	1.24	0.895	1.27	0.604	0.595	0.422	0.48	0.619
SLLKDYSPQLQ [OTC_Y345_T343K]	0.463	0.884	0.604	0.469	0.495	0.504	0.806	0.525	0.624	0.999	0.703	0.443	0.6	0.489	0.554	0.59
SLLVVYPWTQR [HBB_Y36_R31S]	1.14	1.88	1.5	0.36	0.438	0.395	1.01	0.544	0.804	0.513	1.05	0.374	0.516	0.398	0.462	0.602
SLMGCYNLTFM [HS6ST3_Y323_V320M]	0.459	0.823	0.542	0.955	0.546	0.724	1.63	0.655	1.61	1.02	1.46	0.56	0.592	1.35	0.65	1.14
SLNEEYTKNKT [MSH2_Y563]	0.621	0.988	0.663	0.426	0.324	0.37	0.786	0.354	0.593	0.397	0.716	0.348	0.325	0.379	0.369	0.537
SNFRAYATEPH [TNNI3_Y29_YF]	0.497	0.717	0.671	0.486	0.53	0.441	0.664	0.463	0.526	0.462	0.647	0.378	0.473	0.366	0.399	0.64
SNKLFYQLEQE [PDPR_Y110_YF]	0.651	0.869	0.649	1.91	0.588	0.641	1.39	0.738	1.3	0.692	1.25	0.508	1.45	0.583	0.628	0.791
SNMPSYSGHFT [GRIN2A_Y1224_T1223S]	0.548	0.79	0.631	0.463	0.328	0.425	0.599	0.408	0.614	0.421	0.476	0.411	0.465	1.6	0.417	0.444
SRDDFYETIAM [NPY1R_Y347_D346Y_YF]	0.916	0.947	0.73	1.06	0.5	2.04	1.21	0.68	1.23	0.871	1.3	0.826	1.44	7.71	1.02	0.773
SRDPFYEMLAA [CYTH1_Y382]	2.44	0.957	0.748	2.96	5.1	4.88	1.26	1.71	0.729	3.2	1.21	7.89	2.55	12.4	3.5	0.681
SRNKPYISWPS [CDC42BPB_Y1638]	1.32	1.61	1.51	0.483	0.469	0.485	0.612	0.395	0.977	0.511	0.583	0.441	0.436	0.345	0.417	0.477
SSDPDYRAAVD [GLB1_Y154_L155R]	0.627	0.78	0.668	0.409	0.556	0.527	0.988	0.589	0.793	0.635	0.926	0.471	0.449	0.507	0.508	0.669
SSQHRYSTPHA [RAF1_Y232]	2.11	0.714	0.898	0.433	0.364	0.293	0.53	0.354	0.403	0.344	0.682	0.437	0.357	0.365	0.479	0.387
SSSGGYGGGFG [KRT19_Y61_A60G_YF]	0.375	1.09	0.481	0.356	0.32	0.35	0.593	0.346	0.499	0.477	0.48	0.398	0.355	0.358	0.341	0.512
SSTASYFKAPG [RFX2_Y108_E110K]	0.608	0.891	0.885	0.394	0.548	0.431	0.619	0.394	0.53	0.474	0.598	0.415	0.4	0.339	0.471	0.418
